In patent US20070071764A1:
Read-outs that look alike come from different tables or passages of the source. Where no end group is shown, it is not given here.

What was measured:
Assay in all cases: cell-based or functional assay
[1] = target: human Kv1.1 channel (human) (UniProt Q09470)
[2] = target: human Kv1.3 channel (human) (UniProt P22001)
[3] = target: human Kv1.3 channel (human) (UniProt P22001); remark: listed apart in the source

Sequence of human Kv1.3 channel (human) (P22001 whole entry): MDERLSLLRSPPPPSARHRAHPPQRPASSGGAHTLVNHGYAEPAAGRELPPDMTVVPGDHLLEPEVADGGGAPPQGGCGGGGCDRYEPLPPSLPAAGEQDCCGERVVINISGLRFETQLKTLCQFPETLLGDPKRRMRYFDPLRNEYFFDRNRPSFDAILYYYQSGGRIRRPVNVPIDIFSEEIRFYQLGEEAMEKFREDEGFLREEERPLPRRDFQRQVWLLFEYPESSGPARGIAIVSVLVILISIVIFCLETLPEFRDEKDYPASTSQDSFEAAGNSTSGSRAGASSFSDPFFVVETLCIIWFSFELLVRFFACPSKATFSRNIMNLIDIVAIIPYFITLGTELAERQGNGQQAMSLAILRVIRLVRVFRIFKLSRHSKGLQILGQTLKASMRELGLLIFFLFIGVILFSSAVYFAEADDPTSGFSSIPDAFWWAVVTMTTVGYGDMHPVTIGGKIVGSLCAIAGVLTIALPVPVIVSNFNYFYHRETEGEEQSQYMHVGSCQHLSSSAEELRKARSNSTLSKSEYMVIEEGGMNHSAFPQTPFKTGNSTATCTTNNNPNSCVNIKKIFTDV
Sequence of human Kv1.1 channel (human) (Q09470 whole entry): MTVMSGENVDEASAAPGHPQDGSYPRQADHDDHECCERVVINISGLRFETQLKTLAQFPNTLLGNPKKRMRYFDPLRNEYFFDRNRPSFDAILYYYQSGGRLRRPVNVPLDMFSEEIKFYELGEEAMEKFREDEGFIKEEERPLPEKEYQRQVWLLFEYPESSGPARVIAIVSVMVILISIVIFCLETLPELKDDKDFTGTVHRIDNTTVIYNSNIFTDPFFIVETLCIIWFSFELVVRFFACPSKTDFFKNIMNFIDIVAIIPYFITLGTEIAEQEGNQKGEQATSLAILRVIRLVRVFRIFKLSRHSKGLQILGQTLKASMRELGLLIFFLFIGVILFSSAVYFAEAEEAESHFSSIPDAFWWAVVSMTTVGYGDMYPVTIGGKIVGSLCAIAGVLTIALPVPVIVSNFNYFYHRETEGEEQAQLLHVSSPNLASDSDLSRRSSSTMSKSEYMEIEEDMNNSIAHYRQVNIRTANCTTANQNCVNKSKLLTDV

Synthetic OSK1 toxin peptide gave a hKv1.1: IC50 (electrophysiology, HEK293) [1] of 160 pM, a hKv1.3: IC50 (whole-cell patch clamp, HEK293) [2] of 0.039 nM and a selectivity ratio hKv1.1/hKv1.3 (IC50 on hKv1.1 over IC50 on hKv1.3) [2] of 4.

Work on PEG-OSK1 (peptide) yielded a peak IC50 (whole-cell patch clamp, HEK293 stably expressing human Kv1.3) [2] of 1.28 nM.

Fc-L25-ShK[2-35] peptibody (Fc fusion) was tested, and the IC50, whole cell patch clamp electrophysiology on HEK293/Kv1.3 cells [2] was 150 pM.

Molecule “Fc-L10-OSK1 (CHO-derived peptibody) (Fc fusion)” has a hKv1.1: IC50 (electrophysiology, HEK293) [1] of 41600 pM.

B1: 20K PEG-ShK[1-35] (peptide)
peptide: RSCIDTIPKSRCTAFQCKHSMKYRLSFCRKTCGTC
modifications: not fully specified (N-terminus); ends and bridges not checked
B1 was tested, and the peak IC50 (whole-cell patch clamp, HEK293 stably expressing human Kv1.3) [3] was 0.169 nM.
